Experimental data: publication PMC6317822, “RSM1, an Arabidopsis MYB protein, interacts with HY5/HYH to modulate seed germination and seedling development in response to abscisic acid and salinity” (PLoS Genetics, 2018)

How the values were obtained:
GST-HYH [1] = target: T1, GST-HYH (Arabidopsis thaliana, UniProt Q8W191 1-149); assay: competition; unlabeled competitor vs N1; EMSA: 2 ug protein in 20 uL, 10 mM Tris-HCl pH 7.5, 50 mM KCl, 1 mM DTT, 50 ng/uL poly(dI-dC), 25 C, 20 min; 4-6% native PAGE, 0.5x TBE; details: protein: recombinant; tags: GST (pGEX-4T-1); chain copies: 2; label: unlabeled
T1 sequence: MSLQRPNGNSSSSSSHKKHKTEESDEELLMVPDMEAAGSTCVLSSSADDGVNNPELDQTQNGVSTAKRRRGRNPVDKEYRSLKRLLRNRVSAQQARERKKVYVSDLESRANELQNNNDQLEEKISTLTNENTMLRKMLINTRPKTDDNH

His-HY5 [2] = target: T2, His-HY5 (Arabidopsis thaliana, UniProt O24646 1-168); assay: as above; details: protein: recombinant; tags: His; chain copies: 2; label: unlabeled
T2 sequence: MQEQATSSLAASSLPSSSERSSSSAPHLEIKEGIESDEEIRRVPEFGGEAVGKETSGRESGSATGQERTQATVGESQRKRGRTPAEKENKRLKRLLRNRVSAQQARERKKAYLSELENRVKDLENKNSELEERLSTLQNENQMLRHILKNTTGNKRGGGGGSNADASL

His-RSM1 = target: T3, His-RSM1 (Arabidopsis thaliana, UniProt Q9SIJ5 1-101); assay: EMSA; EMSA: 2 ug protein in 20 uL, 10 mM Tris-HCl pH 7.5, 50 mM KCl, 1 mM DTT, 50 ng/uL poly(dI-dC), 25 C, 20 min; 4-6% native PAGE, 0.5x TBE; details: protein: recombinant, tags: His (pET28a)
T3 sequence: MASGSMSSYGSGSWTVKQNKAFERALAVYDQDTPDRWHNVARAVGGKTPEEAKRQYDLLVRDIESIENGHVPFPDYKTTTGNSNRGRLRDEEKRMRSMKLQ

GST-HYH [3] = target: T1, GST-HYH; assay: as above; details: protein: recombinant; tags: GST (pGEX-4T-1); chain copies: 2; label: biotin 5'
His-HY5 [4] = target: T2, His-HY5; assay: as above; details: protein: recombinant; tags: His; chain copies: 2; label: biotin 5'
GST-HY5 = target: T4, GST-HY5 (Arabidopsis thaliana, UniProt O24646 1-168); assay: as above; details: protein: recombinant; tags: GST (pGEX-4T-1 in Methods); chain copies: 2; label: biotin 5' on both strands; blunt
T4 sequence: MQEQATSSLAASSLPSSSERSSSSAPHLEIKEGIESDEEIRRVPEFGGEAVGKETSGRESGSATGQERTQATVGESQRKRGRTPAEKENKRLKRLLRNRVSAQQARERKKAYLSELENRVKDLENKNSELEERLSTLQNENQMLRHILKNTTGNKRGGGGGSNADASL

[5] = target: T5, GST-HY5 (ELONGATED HYPOCOTYL 5) (Arabidopsis, UniProt O24646 1-168); assay: pull-down; 2 ug GST or GST fusion protein mixed with 2 ug His-RSM1 in 500 uL GST binding buffer (50 mM Tris-HCl pH 7.5, 100 mM NaCl, 0.1% Nonidet P-40), Glutathione Sepharose 4B beads, 4 C, 2 h; four washes; immunoblot with anti-GST or anti-His; details: both partners purified
T5 construct: HY5 (ELONGATED HYPOCOTYL 5), bZIP transcription factor, Arabidopsis, At5g11260; the CDS cloned into the EcoRI and XhoI sites of pGEX-4T-1
T5 sequence (looked up): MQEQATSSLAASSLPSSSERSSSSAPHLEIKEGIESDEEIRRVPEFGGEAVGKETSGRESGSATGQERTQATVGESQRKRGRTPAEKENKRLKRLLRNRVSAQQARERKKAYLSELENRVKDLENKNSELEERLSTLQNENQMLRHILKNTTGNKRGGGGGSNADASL

B1: RSM1 promoter m2 competitor (dsDNA)
DNA 1: ATCTAGAGAATAGTACTATAACCACTAA
DNA 2: TTAGTGGTTATAGTACTATTCTCTAGAT
B1: no binding (GST-HYH [1]); no binding (His-HY5 [2]).

B2: RSM1 promoter P1 (dsDNA)
DNA 1: GAGACTTGTCCCTAACTTTCAACCAAAGACTTGTAATTTTCCGCGAGCAC
DNA 2: GTGCTCGCGGAAAATTACAAGTCTTTGGTTGAAAGTTAGGGACAAGTCTC
B2: binds (His-RSM1; label: biotin 5').

B3: RSM1 promoter m1 competitor (dsDNA)
DNA 1: GCTGCAAGAATGACGTCATAACCACTAA
DNA 2: TTAGTGGTTATGACGTCATTCTTGCAGC
B3: binds (GST-HYH [1]); binds (His-HY5 [2]).

B4: RSM1 promoter C-box probe (WT) (dsDNA)
DNA 1: ATCTAGAGAATGACGTCATAACCACTAA
DNA 2: TTAGTGGTTATGACGTCATTCTCTAGAT
B4: binds (GST-HYH [3]); binds (His-HY5 [4]).

B5: ABI5 promoter probe (HY5 site) (dsDNA)
DNA 1: CCTTATGCAGTGAATAGTCCACGTGCACTCCCAATGGAAGTTCGGAATC
DNA 2: GATTCCGAACTTCCATTGGGAGTGCACGTGGACTATTCACTGCATAAGG
B5: no binding (His-RSM1; label: biotin 5' on both strands, blunt); binds (GST-HY5).

B6: His-RSM1 (RADIALIS-LIKE SANT/MYB 1) (natural protein, Arabidopsis, UniProt Q9SIJ5 1-101, looked up)
chain: MASGSMSSYGSGSWTVKQNKAFERALAVYDQDTPDRWHNVARAVGGKTPEEAKRQYDLLVRDIESIENGHVPFPDYKTTTGNSNRGRLRDEEKRMRSMKLQ
notes: the CDS of RSM1 cloned into the BamHI and SacI sites of pET28a; also called MEE3; MATERNAL EFFECT EMBRYO ARREST 3; source: E. coli BL21 (pET28a-RSM1, 1 mM IPTG), purified with Ni-NTA beads
B6: binds [5].

B7: RSM1 promoter P2 (dsDNA)
DNA 1: GTGAGCTTTGTGCTCTGATTAGAGACCAGACTGTTCCATGAATTAAGTAC
DNA 2: GTACTTAATTCATGGAACAGTCTGGTCTCTAATCAGAGCACAAAGCTCAC
B7: binds (His-RSM1; label: biotin 5').

B8: RSM1 promoter m3 competitor (dsDNA)
DNA 1: ATCTAGAGAATGACGTCATAACTGTCGG
DNA 2: CCGACAGTTATGACGTCATTCTCTAGAT
B8: binds (GST-HYH [1]); binds (His-HY5 [2]).
